Reference: patent publication US20260185093

Test system: T1, SpuFz1 (FZID16) (Spizellomyces punctatus)
T1 sequence: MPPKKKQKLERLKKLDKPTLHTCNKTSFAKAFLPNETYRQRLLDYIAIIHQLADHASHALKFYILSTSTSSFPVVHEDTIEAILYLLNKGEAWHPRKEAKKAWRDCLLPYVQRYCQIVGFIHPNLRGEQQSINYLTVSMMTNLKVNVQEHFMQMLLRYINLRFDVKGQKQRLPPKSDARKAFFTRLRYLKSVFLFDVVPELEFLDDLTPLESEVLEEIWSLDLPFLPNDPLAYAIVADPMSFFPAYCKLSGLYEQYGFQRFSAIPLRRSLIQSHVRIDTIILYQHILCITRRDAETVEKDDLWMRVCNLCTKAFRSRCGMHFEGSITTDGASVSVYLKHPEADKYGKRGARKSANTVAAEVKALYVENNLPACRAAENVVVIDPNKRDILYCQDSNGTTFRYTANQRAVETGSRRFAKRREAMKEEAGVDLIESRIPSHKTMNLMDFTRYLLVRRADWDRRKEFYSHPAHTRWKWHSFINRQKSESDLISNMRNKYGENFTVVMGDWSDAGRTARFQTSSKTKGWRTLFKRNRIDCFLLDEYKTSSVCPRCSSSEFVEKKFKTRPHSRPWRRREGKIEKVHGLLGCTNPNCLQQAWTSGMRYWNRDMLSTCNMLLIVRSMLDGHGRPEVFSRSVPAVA
Experiment: cell_activity
Conditions: HEK293FT, TAM CATA

Sequence: GUCCACGGACUGCUGGGUUGUACCAACCCUAACUGUUUGCAGCAAGCCUGGACAUCGGGAAUGCGCUACUGGAAUCGAGAUAUGCUGUCAACCUGCAACAUGCUAUUGAUUGUGAGAUCAAUGUUGGAUGGACACGGUAGACCAGAAGUGUUCAGCAGGAGUGUUCCAGCCGUAGCGUAGAACGUAGAUUGGUUAGAUUAGGUUUUCCGAGCCGGUUGUCGCGCGGUUCAAUCCCUGGUGCGGGUGCUAGUGCCAAUACCCACCGGCUCCGCACUAGCAUUCCUUAACACAUCACU / GCATTCCTTAACACATCACT / AGTGATGTGTTAAGGAATGC
- activity (gID7, longest initial scaffold): 0.78 % indel

Sequence: GUUUUCCGAGCCGGUUGUCGCGCGGUUCAAUCCCUGGUGCGGGUGCUAGUGCCAAUACCCACCGGCUCCGCACUAGCAUUCCUUAACACAUCACU / GCATTCCTTAACACATCACT / AGTGATGTGTTAAGGAATGC
- activity (gID7, minimal omegaRNA): 0.17 % indel
